Data: publication PMC3839849 (Journal of molecular biology, 2013)

Target: CaV1.2 IQ domain TripleA mutant (CaV1.2 F1618A, F1619A, Y1622A) (human)
Experiment: ITC

B1: CaBP1 C-terminal lobe (domain or fragment)
chain: IGVKELRDAFREFDTNGDGEISTSELREAMRKLLGHQVGHRDIEEIIRDVDLNGDGRVDFEEFVRMMSR
In the case of B1, the Kd is reported as 221 nM, the dH is reported as -1.45 ± 0.14 kcal/mol and the “stoichiometry N” value is reported as 0.93 ± 0.01.
